Changes are numbered by the printed parent chain. Names and notes keep the numbering of the source.
Legend:
[1] = target: T1, Nucleolin (NCL) (UniProt P19338 1-710); experiment: EMSA; printed as KD >= 1500 nM; still interacts with very low affinity; 20 mM Tris-HCl pH 7.5, 50 mM KCl, 10% glycerol, 0.3 mg/mL BSA, 0.02% Nonidet P-40, 15 uL, 2 pmol 32P-RNA, 20 °C 30 min (competition: further 30 min); native 7%; conditions: protein: recombinant; tags: His; label: 32P; predicted fold, CGA in bubble
[2] = target: T1, Nucleolin (NCL); experiment: EMSA; complex I, NCL in excess; Kd taken as protein concentration retarding 50% of probe; 20 mM Tris-HCl pH 7.5, 50 mM KCl, 10% glycerol, 0.3 mg/mL BSA, 0.02% Nonidet P-40, 15 uL, 2 pmol 32P-RNA, 20 °C 30 min (competition: further 30 min); native 7%; conditions: protein: recombinant, tags: His
[3] = target: T1, Nucleolin (NCL); experiment: EMSA; complete loss of retardation; 20 mM Tris-HCl pH 7.5, 50 mM KCl, 10% glycerol, 0.3 mg/mL BSA, 0.02% Nonidet P-40, 15 uL, 2 pmol 32P-RNA, 20 °C 30 min (competition: further 30 min); native 7%; conditions: protein: recombinant; tags: His; label: 32P; predicted fold, CGA at junction of double-stranded and unstructured region

T1 sequence (P19338 whole entry): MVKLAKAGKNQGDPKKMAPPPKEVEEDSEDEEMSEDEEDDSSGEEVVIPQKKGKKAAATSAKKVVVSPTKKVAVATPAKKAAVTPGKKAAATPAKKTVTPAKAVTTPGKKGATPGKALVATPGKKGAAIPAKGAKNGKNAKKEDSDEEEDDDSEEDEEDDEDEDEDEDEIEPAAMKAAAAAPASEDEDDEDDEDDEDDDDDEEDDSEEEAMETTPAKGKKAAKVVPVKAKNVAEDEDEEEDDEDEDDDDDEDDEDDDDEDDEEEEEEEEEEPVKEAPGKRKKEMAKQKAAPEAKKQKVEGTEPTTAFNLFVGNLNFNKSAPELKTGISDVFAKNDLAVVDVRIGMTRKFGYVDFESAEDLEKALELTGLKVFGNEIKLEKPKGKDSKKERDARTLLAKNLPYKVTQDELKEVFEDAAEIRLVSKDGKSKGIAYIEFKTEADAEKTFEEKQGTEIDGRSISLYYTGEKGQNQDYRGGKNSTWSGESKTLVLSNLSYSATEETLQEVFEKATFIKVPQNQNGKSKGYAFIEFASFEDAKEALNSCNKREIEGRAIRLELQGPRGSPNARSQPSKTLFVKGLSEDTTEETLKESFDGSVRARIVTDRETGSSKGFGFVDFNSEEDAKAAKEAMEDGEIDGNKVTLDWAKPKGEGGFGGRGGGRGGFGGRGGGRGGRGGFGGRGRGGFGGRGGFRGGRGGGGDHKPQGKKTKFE

B1: D2M (structured_RNA)
RNA: AGGCGGAAAUGGUUCGACUAAAUGUGUGGGAA
Kd [1]: > 1.5 µM

B2: wt tRF3E (structured_RNA)
RNA: AGGCGGCCCGGGUUCGACUCCCGGUGUGGGAA
Kd ([2]; hairpin (predicted stems, CGA 15-17 in loop)): ~0.28 µM

B3: M6-11 (structured_RNA)
RNA: B1 RNA with A20C, A21C, A22C, U23G
binding result [3]: no binding

B4: M19-24 (structured_RNA)
RNA: B1 RNA with A7C, A8C, A9C, U10G
Kd ([2]; hairpin (predicted, CGA 15-17 in loop)): ~0.28 µM

Source: PMC12293987, “Dissecting the tRNA Fragment tRF3E–Nucleolin Interaction: Implications in Breast Cancer”
